Measured values published in patent US9289478B2, “Formulations of tumour-associated peptides binding to human leukocyte antigen (HLA) class I or class II molecules for vaccine” (IMMATICS BIOTECHNOLOGIES GMBH, priority 2008, dated 2016).

How the values were obtained:
[1] = HPLC-assay for in-use stability after reconstitution with 4.2% sodium hydrogen carbonate solution (Example 2, peptides SEQ ID NO 1-10); format: physicochemical
Experimental: Resolubilization procedure: For clinical trials the above described formulation is dissolved in 700 μl sodium hydrogen carbonate (4.2%). Remove plastic cap from one vial. Unpack and remove sodium hydrogen carbonate (4.2%) from the refrigerator at least 30 min before resolubilization to bring them up to room temperature before injection. Prepare syringe and needle for reconstitution. Use aseptic technique to take 700 μL of diluent for reconstitution of the lyophilisate. To dissolve the lyophilisate, the vial and the diluent shall be shaken vigorously for 1 minute, check whether solution is clear, otherwise continue shaking for another minute until the solution is clear. 10 to 30 minutes after GM-CSF injection, use a new syringe to administer 500 μL reconstituted formulation i.d. at the same site. Administration has to occur within 1 h after reconstitution. Dissolved lyophilisate may be stored aseptically at room temperature for up to 1 hour following reconstitution.
However, a decrease of two specific peptides, i.e. IMA-CCN-001 and IMA-RGS-001 took place (see Table 6). As these peptides contain a cysteine residue, time-depending dimerization takes place.
Identity, purity and peptide content are determined by analytical RP-HPLC chromatography. Detection wavelength was 220 nm.

[2] = Stability of renal cell cancer vaccine test formulations at +25° C. and +40° C. by analytical HPLC assay; format: physicochemical; conditions: especially at +40° C.
Experimental: Various lyophilisates were tested with respect to stability of each individual peptide at +25° C. and […] using an analytical HPLC assay.
The peptides according to the SEQ ID NOs: 1 to 10 were lyophilised without any excipients and by addition of mannitol and Poloxamer 188 (LUTROL F68®) or TWEEN 80®.
The following test formulations were produced and stability were assessed at +25° C. and +40° C. by analytical HPLC assay:
Initial HPLC measurements have been performed for each formulation before storage in a climate chamber. For this purpose, the content of two vials was completely dissolved in 30% acetic acid and measured by RP-HPLC by repeat determination. To assure comparability between the individual measurements, β-Naphtyl-alanine was used as internal standard and lyophilized together with the peptides.
After 7, 14, 21, and 28 days, another two vials were removed from the climate chamber to assess stability.
Data assessment was performed by repeat determination of one vial. For one time point and temperature, two independent vials were used to obtain four data points in total. These values have been taken to calculate the standard deviation shown as error bars in the relevant diagram.

[3] = +mannitol/lutrol, 1 h after reconstitution
[4] = +mannitol/lutrol, 2 h after reconstitution
[5] = +mannitol/lutrol, 3 h after reconstitution
[6] = +mannitol/lutrol, 4 h after reconstitution
[7] = +mannitol/lutrol, 5 h after reconstitution
[8] = +mannitol/lutrol, 6 h after reconstitution
[9] = +mannitol/lutrol, Initial (starting value set to 100%)
[10] = no excipients, 1 h after reconstitution
[11] = no excipients, 2 h after reconstitution
[12] = no excipients, 3 h after reconstitution
[13] = no excipients, Initial (starting value set to 100%)

Sequence | in-use stability, peptide by HPLC-assay [1, 3] [%] | in-use stability, peptide by HPLC-assay [1, 4] [%] | in-use stability, peptide by HPLC-assay [1, 5] [%] | in-use stability, peptide by HPLC-assay [1, 6] [%] | in-use stability, peptide by HPLC-assay [1, 7] [%] | in-use stability, peptide by HPLC-assay [1, 8] [%] | in-use stability, peptide by HPLC-assay [1, 9] [%] | stability after reconstitution (in words) ([1]; Example 2 formulation, 4.2% sodium hydrogen carbonate) | in-use stability, peptide by HPLC-assay [1, 10] [%] | in-use stability, peptide by HPLC-assay [1, 11] [%] | in-use stability, peptide by HPLC-assay [1, 12] [%] | in-use stability, peptide by HPLC-assay [1, 13] [%] | peptide signal in formulations containing TWEEN 80 [2]
LAALPHSCL (listed as Homo sapiens) [RGS-001, RGS-5 tumour-associated peptide] | 97.9 | 95.5 | 94.2 | 91.6 | 88.0 | 86.8 | 100.0 | decrease | 90.9 | 77.8 | 64.6 | 100.0 | enhanced degradation
SVASTITGV (listed as Homo sapiens) [ADF-001, Adipophilin tumour-associated peptide] | 99.6 | 99.6 | 100.7 | 100.8 | 99.9 | 101.8 | 100.0 | – | 102.4 | 102.4 | 100.0 | 100.0 | increase of the signal
